Results published in paper PMC5331437, “Synthesis of Mono- and Di-Glucosides of Zearalenone and α-/β-Zearalenol by Recombinant Barley Glucosyltransferase HvUGT14077” (Toxins, 2017).

Legend:
[1] = target: T1, HvUGT14077 (Hordeum vulgare, UniProt D3WYW3); experiment: LC-MS/MS of glucoside formation; format: biochemical; parameters: gene UGT; nHis6-MalE-TEV-HvUGT14077 fusion (tags kept), E. coli BL21 (DE3), IMAC, predicted 97 kDa incl. tags
T1 sequence (D3WYW3 1-490): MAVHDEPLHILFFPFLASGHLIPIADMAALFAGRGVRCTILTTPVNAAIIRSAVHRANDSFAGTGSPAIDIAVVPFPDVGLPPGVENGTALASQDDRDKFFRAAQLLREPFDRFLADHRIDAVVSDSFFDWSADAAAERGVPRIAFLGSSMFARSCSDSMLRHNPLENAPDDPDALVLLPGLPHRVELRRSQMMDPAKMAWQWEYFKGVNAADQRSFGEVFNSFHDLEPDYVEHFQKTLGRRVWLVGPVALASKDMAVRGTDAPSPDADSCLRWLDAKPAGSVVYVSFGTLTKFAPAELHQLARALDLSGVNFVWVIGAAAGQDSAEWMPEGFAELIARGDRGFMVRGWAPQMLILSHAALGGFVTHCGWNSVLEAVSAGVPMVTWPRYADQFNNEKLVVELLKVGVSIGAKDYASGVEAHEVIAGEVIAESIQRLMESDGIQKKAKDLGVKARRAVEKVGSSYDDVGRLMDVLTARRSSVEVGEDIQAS

[2] = target: T1, HvUGT14077; experiment: LC-MS/MS, steady state, sum of […]- and 16-glucosides, Haldane fit; parameters: gene UGT; conditions: read-out: Kinetic Constant / Km; 10 mM UDP-glucose; 100 mM Tris/Cl pH 7.5, 37 °C; apparent Km, substrate inhibition model
[3] = substrate: C[C@H]1CCC[C@H](O)CCC/C=C/c2cc(O)cc(O)c2C(=O)O1; experiment: purified protein; conditions: 10 mM UDP-glucose, 100 mM Tris/Cl pH 7.5, 37 °C, apparent Km, substrate inhibition model
[4] = substrate: O=c1ccn([C@@H]2O[C@H](CO[P@@](=O)(O)O[P@@](=O)(O)O[C@H]3O[C@H](CO)[C@@H](O)[C@H](O)[C@H]3O)[C@@H](O)[C@H]2O)c(=O)[nH]1; experiment: purified protein; conditions: 25 µM zearalenone, 100 mM Tris/Cl pH 7.5, 37 °C
[5] = substrate: C[C@H]1CCC[C@@H](O)CCC/C=C/c2cc(O)cc(O)c2C(=O)O1; experiment: purified protein; conditions: 10 mM UDP-glucose, 100 mM Tris/Cl pH 7.5, 37 °C, apparent Km, substrate inhibition model

With `O=c1ccn([C@@H]2O[C@H](COP(=O)(O)OP(=O)(O)O)[C@@H](O)[C@H]2O)c(=O)[nH]1` [UDP] as the molecule, how does the IC50 [1] read?
The IC50 was 340 µM.

With `C[C@H]1CCCC(=O)CCC/C=C/c2cc(O)cc(O)c2C(=O)O1` [ZEN, Zearalenone] as the molecule, how does the Km [2] read?
Its Km is 3 ± 1 µM.

B1: HvUGT14077 (Hordeum vulgare subsp. vulgare) (protein)
chain: T1 sequence (D3WYW3 1-490)
B1 was tested. Which Km [3] did it give?
The Km was 13 ± 2 µM.

And the Vmax [3]?
The Vmax was 0.32 µmol/min/mg.

What about the kcat [3] of the same molecule?
Its kcat is 0.52 ± 0.05 s⁻¹.

And the kcat/Km [3]?
Its kcat/Km is 40000 M⁻¹ s⁻¹.

What about the Km [4] of the same molecule?
Its Km is 78 ± 9 µM.

And the Km [5]?
Its Km is 27 ± 3 µM.

And the Vmax [5]?
The Vmax was 1.2 µmol/min/mg.

What about the kcat [5] of the same molecule?
The kcat was 2 ± 0.1 s⁻¹.

And the kcat/Km [5]?
Its kcat/Km is 74000 M⁻¹ s⁻¹.
